In the test the target is T1, Factor VIIa (purified human, Enzyme Research Laboratories) (human, UniProt P08709 61-466).
T1 sequence (looked up): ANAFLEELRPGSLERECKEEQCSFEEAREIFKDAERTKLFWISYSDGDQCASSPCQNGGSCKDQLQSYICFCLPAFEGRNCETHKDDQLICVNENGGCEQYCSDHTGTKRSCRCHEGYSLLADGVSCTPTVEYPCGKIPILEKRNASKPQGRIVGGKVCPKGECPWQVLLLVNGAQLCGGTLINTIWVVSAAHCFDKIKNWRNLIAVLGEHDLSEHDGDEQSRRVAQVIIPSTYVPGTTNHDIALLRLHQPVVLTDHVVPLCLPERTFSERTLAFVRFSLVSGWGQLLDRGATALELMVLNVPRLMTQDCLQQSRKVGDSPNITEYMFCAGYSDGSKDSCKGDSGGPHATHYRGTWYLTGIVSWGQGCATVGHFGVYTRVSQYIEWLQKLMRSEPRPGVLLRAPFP
Put plainly: Titration of cofactor against 5 nM Factor VIIa; increase in amidolytic activity (Chromozym t-PA); no phospholipid vesicles. The procedure: After 10 min at room temperature, Chromozym t-PA was added (1 mM final) and the initial rate of substrate hydrolysis was measured at 405 nm using a microplate reader (Molecular Devices, Menlo Park, Calif.). […] Kinetic parameters were calculated using Prism 4 (GraphPad Software, San Diego, Calif.).

Broadly, the Kd is a measure of binding affinity in units of concentration. Low readings indicate higher affinity, high ones lower affinity.

B1: sTF-annexin V chimeric protein (other)
chain: GTTNTVAAYNLTWKSTNFKTILEWEPKPVNQVYTVQISTKSGDWKSKCFYTTDTECDLTDEIVKDVKQTYLARVFSYPAGNVESTGSAGEPLYENSPEFTPYLETNLGQPTIQSFEQVGTKVNVTVEDERTLVRRNNTFLSLRDVFGKDLIYTLYYWKSSSSGKKTAKTNTNEFLIDVDKGENYCFSVQAVIPSRTVNRKSTDSPVECMGQEKGEFREGGGGSGGGGSGGGGSAQVLRGTVTDFPGFDERADAETLRKAMKGLGTDEESILTLLTSRSNAQRQEISAAFKTLFGRDLLDDLKSELTGKFEKLIVALMKPSRLYDAYELKHALKGAGTNEKVLTEIIASRTPEELRAIKQVYEEEYGSSLEDDVVGDTSGYYQRMLVVLLQANRDPDAGIDEAQVEQDAQALFQAGELKWGTDEEKFITIFGTRSVSHLRKVFDKYMTISGFQIEETIDRETSGNLEQLLLAVVKSIRSIPAYLAETLYYAMKGAGTDDHTLIRVMVSRSEIDLFNIRKEFRKNFATSLYSMIKGDTSGDYKKALLLLCGEDDPLEHHHHHH
notes: Expressed in the E. coli periplasm from pET-22b(+), whose signal peptide is removed; also called sTF-annV; sTF-AnnV
B1 had a Kd of 7.05 nM.

B2: recombinant sTF (TF2-219) (receptor)
chain: GTTNTVAAYNLTWKSTNFKTILEWEPKPVNQVYTVQISTKSGDWKSKCFYTTDTECDLTDEIVKDVKQTYLARVFSYPAGNVESTGSAGEPLYENSPEFTPYLETNLGQPTIQSFEQVGTKVNVTVEDERTLVRRNNTFLSLRDVFGKDLIYTLYYWKSSSSGKKTAKTNTNEFLIDVDKGENYCFSVQAVIPSRTVNRKSTDSPVECMGQEKGEFRE
notes: also called soluble TF; soluble Tissue Factor
Turning to B2, the dissociation constant (Kd) is 8.17 nM.

The values above are taken from patent publication US20080280831A1 (BOARD OF REGENTS OF THE UNIVERSITY OF OKLAHOMA, published 2008).
